Test [1] deals with CD33 on human CD33(+) cells (human, UniProt P20138 18-364). The test is described as follows: cell-based or functional assay.
Test [2] has as its target T1, CD3 on activated T cells (human, UniProt P07766 23-207).
T1 construct: whole, on cells; CD3 complex on cells; the rest of the complex is not described; also called CD3 receptor
The test is described as follows: flow cytometry on activated T cells, 4 C, secondary antibody, MFI. The protocol:
FIG. 13 depicts binding properties of an exemplary CD33-CD3 IgG-scFv (BsAb) to CD33 and CD3. (A) MOLM13 cells were reacted for 30 min at 4 C.° using decreasing doses of hM195 (anti-CD33 IgG), the heterodimeric BsAb, and an exemplary CD33-CD3 IgG-scFv. Cells were washed and immunostained with a fluorochrome-conjugated secondary antibody and mean fluorescence intensity (MFI) assayed by flow cytometry. (B) MOLM13 cells were reacted for 30 min, 4 h or 24 h at 37 C.° or 4 C.° with 1 μg/ml of hM195 (anti-CD33 IgG), the heterodimeric IgG BsAb, and exemplary CD33-CD3 IgG-scFv. Cells were washed and immunostained with a fluorochrome-conjugated secondary antibody at 4 C.°. After washing the unbound antibody, MFI was analyzed by flow cytometry. (C) Activated T cells were reacted for 30 min at 4 C.° with decreasing doses of hOKT3 (anti-CD3 IgG), the heterodimeric BsAb, and exemplary CD33-CD3 IgG-scFv. Cells were washed and immunostained with a fluorochrome-conjugated secondary antibody and MFI analyzed measured by flow cytometry.
For orientation: A flow cytometer gives signals particle by particle.

Sequence of CD33 on human CD33(+) cells (P20138 18-364): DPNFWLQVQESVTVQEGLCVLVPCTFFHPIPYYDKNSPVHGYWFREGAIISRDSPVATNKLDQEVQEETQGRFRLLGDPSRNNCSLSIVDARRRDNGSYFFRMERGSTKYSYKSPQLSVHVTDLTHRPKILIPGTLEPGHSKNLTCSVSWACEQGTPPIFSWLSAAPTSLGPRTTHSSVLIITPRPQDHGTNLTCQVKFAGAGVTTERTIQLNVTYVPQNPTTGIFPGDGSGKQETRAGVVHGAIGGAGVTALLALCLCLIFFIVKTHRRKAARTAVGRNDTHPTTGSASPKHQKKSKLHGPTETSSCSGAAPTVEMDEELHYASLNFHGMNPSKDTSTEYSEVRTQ
T1 sequence (P07766 23-207): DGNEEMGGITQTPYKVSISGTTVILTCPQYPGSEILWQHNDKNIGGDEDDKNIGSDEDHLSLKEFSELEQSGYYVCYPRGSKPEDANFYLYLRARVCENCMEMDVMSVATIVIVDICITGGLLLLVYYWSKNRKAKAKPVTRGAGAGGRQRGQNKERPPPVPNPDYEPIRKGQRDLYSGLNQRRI

B1: CD33-BsAb (BiClone 133), exemplary CD33-CD3 IgG-scFv bispecific antibody agent (bispecific antibody)
heavy: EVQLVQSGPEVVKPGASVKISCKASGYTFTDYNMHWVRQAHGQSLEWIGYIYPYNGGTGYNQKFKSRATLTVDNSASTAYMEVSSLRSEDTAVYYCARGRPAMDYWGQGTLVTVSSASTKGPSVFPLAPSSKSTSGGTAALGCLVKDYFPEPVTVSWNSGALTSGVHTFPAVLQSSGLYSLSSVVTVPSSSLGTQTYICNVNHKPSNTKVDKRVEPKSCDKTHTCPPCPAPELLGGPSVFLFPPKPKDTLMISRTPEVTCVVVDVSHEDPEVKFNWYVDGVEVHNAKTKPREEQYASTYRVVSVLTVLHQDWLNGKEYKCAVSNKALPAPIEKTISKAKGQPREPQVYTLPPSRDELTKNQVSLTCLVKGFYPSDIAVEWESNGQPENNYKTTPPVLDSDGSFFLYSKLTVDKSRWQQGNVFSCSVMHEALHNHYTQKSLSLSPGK
light: EIVLTQSPATLSVSLGERATISCRASESVDNYGISFMNWFQQKPGQPPRLLIYAASNQGSGVPARFSGSGPGTDFTLTISSMEPEDFAMYFCQQSKEVPWTFGGGTKLEIKRTVAAPSVFIFPPSDEQLKSGTASVVCLLNNFYPREAKVQWKVDNALQSGNSQESVTEQDSKDSTYSLSSTLTLSKADYEKHKVYACEVTHQGLSSPVTKSFNRGECTSGGGGSGGGGSGGGGSQVQLVQSGGGVVQPGRSLRLSCKASGYTFTRYTMHWVRQAPGKCLEWIGYINPSRGYTNYNQKFKDRFTISRDNSKNTAFLQMDSLRPEDTGVYFCARYYDDHYSLDYWGQGTPVTVSSGGGGSGGGGSGGGGSGGGGSGGGGSGGGGSDIQMTQSPSSLSASVGDRVTITCSASSSVSYMNWYQQTPGKAPKRWIYDTSKLASGVPSRFSGSGSGTDYTFTISSLQPEDIATYYCQQWSSNPFTFGCGTKLQITR
notes: IgG-scFv format, tetravalent (2+2): two arms to CD33 and two to CD3; also called CD33-specific BsAb; anti-CD33 BsAb
Turning to B1, in test [1], the “EC50 of T cell cytotoxicity (lysis of MOLM13 cells)” value turned out to be 2.4 pM; the “EC50 of T cell cytotoxicity, 4-hour 51Cr release assay, HL60 AML cells” value was 1.1 pM; the “TDCC potency, fold against the heterodimer, 4 h chromium release assay, THP1 and MOLM13 cells” value is 12 fold. Further, in test [2], the “fold weaker binding (against heterodimer)” value is 2.5 fold and the “fold weaker binding (against huOKT3)” value came out at 27 fold.

The values are drawn from US20200297764A1 (Memorial Sloan Kettering, published 2020).
